Measurements taken from the supplement of paper PMC6757056.
± gives the standard deviation of the averaged measurements.

B1: library; a variant is named by its letters at N, in order (parent)
chain: GCUGUCACCGAGAAACUGUGAAGUAUAUCUUAAACCUGGGCACUUAAAAGAUAUAUGGAGUUAGUAGUGCAACCUGCUCGGUCUGAUGAGUCCNNNNNNGGACGAAACAGC

What was measured:
cyclic di-GMP [1] = variants of: B1; test: FACS-Seq fitted mean relative fluorescence mCherry/BFP without ligand (log10 relative fluorescence); HEK293T; ligand: cyclic di-GMP (c-di-GMP-II aptamer); higher = higher reporter protein expression; settings: ligand present: no
How it was run: (§1)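 With or without ligand for 48 h, enriched HEK293T libraries carrying a lentiviral ribozyme-switch mCherry reporter and EF1α-BFP were sorted into 6 mCherry/BFP bins. Bin genomic DNA was amplified by PCR, barcoded and sequenced on MiSeq. Fluorescence was taken from normal fits to the resulting bin counts. Each fitted mean of log10(mCherry/BFP) was scaled to five spiked-in control ribozymes.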

cyclic di-GMP [2] = variants of: B1; test: normalized RNA/DNA level without ligand (relative to sTRSVctl = 100) (log10 (% of sTRSVctl)); HEK293T; ligand: cyclic di-GMP (c-di-GMP-II aptamer); higher = less ribozyme self-cleavage, higher mRNA level; settings: reporter: mCherry (pCS4076), ligand present: no
How it was run: (§2)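 For each 6-well well, 4 µg of library plasmid encoding mCherry-linked ribozyme switches, or eGFP-linked ones in some ligand experiments, was transfected into HEK293T. Any ligand was added 1 h before transfection, and RNA was extracted with EDTA 72 h after it, then reverse-transcribed, amplified, barcoded and sequenced. RNA level was obtained by dividing RNA reads by DNA reads, normalizing to a spiked-in non-cleaving sequence or to the top sequences, then scaling and log-transforming. The top set was 25 sequences, scaling was ×100 with log10, and ≥100 DNA reads were required.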

cyclic di-GMP [3] = variants of: B1; test: FACS-Seq fitted mean relative fluorescence mCherry/BFP with ligand (log10 relative fluorescence); HEK293T; ligand: cyclic di-GMP (c-di-GMP-II aptamer); ligand concentration (+) FACS-Seq: 1 mM; higher = higher reporter protein expression; settings: ligand present: yes
How it was run: as §1

cyclic di-GMP [4] = variants of: B1; test: normalized RNA/DNA level with ligand (relative to sTRSVctl = 100) (log10 (% of sTRSVctl)); HEK293T; ligand: cyclic di-GMP (c-di-GMP-II aptamer); ligand concentration (+) RNA-Seq: 1 mM; higher = less ribozyme self-cleavage, higher mRNA level; settings: reporter: mCherry (pCS4076), ligand present: yes
How it was run: as §2

Row | Variant | FACS-Seq fitted mean (log10) (cyclic di-GMP [1]) | normalized RNA/DNA level without ligand (log10) (cyclic di-GMP [2]) | FACS-Seq fitted mean (log10) (cyclic di-GMP [3]) | normalized RNA/DNA level with ligand (log10) (cyclic di-GMP [4])
1 | AUUAUC | -0.473 ± 0.04 | 1.72 ± 0.062 | -0.167 ± 0.081 | 1.84 ± 0.13
2 | GUUGCG | -0.248 ± 0.029 | 1.81 ± 0.023 | 0.0336 ± 0.026 | 1.88 ± 0.092
3 | GAAAAC | – | 1.59 ± 0.016 | – | 1.74 ± 0.063
4 | GUUAUA | -0.123 ± 0.14 | 1.59 ± 0.042 | 0.169 ± 0.14 | 1.75 ± 0.071
5 | GUUAUG | -0.452 ± 0.02 | 1.57 ± 0.081 | -0.0804 ± 0.023 | 1.78 ± 0.09
6 | AUCUAC | -0.188 ± 0.047 | 1.7235 ± 0.00012 | 0.162 ± 0.094 | 1.81 ± 0.12
7 | GAAACC | – | 1.722 ± 0.0059 | – | 1.85 ± 0.1
8 | GAAACG | – | 1.61 ± 0.053 | – | 1.77 ± 0.069
9 | AUGAUU | -0.57 ± 0.11 | 1.41 ± 0.17 | -0.0144 ± 0.094 | 1.62 ± 0.11
10 | AUGAUG | -0.239 ± 0.054 | 1.6 ± 0.069 | 0.056 ± 0.078 | 1.77 ± 0.11
11 | CUUGGA | -0.381 ± 0.03 | 1.55 ± 0.031 | -0.107 ± 0.044 | 1.73 ± 0.16
12 | CUGCAA | -0.468 ± 0.049 | 1.36 ± 0.11 | -0.0644 ± 0.035 | 1.59 ± 0.097
13 | CUUAAU | -0.0367 ± 0.24 | 1.55 ± 0.096 | 0.142 ± 0.073 | 1.71 ± 0.1
14 | CUUAAA | -0.598 ± 0.053 | 1.37 ± 0.072 | -0.238 ± 0.21 | 1.53 ± 0.16
15 | CUUCUA | -0.605 ± 0.032 | 1.44 ± 0.072 | -0.312 ± 0.059 | 1.67 ± 0.075
16 | CUGGAA | -0.647 ± 0.051 | 1.26 ± 0.1 | -0.397 ± 0.011 | 1.41 ± 0.06
17 | UUUAAC | 0.0586 ± 0.15 | 1.7 ± 0.022 | 0.264 ± 0.026 | 1.84 ± 0.099
18 | UUUAAU | 0.192 ± 0.051 | 1.698 ± 0.015 | 0.405 ± 0.0074 | 1.84 ± 0.08
19 | AUUGAA | -0.159 ± 0.14 | 1.48 ± 0.079 | 0.152 ± 0.0043 | 1.66 ± 0.031

Row | Variant | FACS-Seq fitted mean (log10) (cyclic di-GMP [1]) | normalized RNA/DNA level without ligand (log10) (cyclic di-GMP [2]) | FACS-Seq fitted mean (log10) (cyclic di-GMP [3]) | normalized RNA/DNA level with ligand (log10) (cyclic di-GMP [4])
20 | CUUUAA | -0.402 ± 0.005 | 1.32 ± 0.094 | -0.039 ± 0.028 | 1.54 ± 0.087
21 | UUGUAG | -0.163 ± 0.065 | 1.6682 ± 0.00036 | 0.112 ± 0.032 | 1.83 ± 0.14
22 | UUGUAU | 0.0117 ± 0.057 | 1.66 ± 0.051 | 0.163 ± 0.013 | 1.82 ± 0.16
23 | AUGAGA | -0.299 ± 0.14 | 1.35 ± 0.12 | -0.147 ± 0.0049 | 1.54 ± 0.15
24 | AUGAGU | -0.416 ± 0.026 | 1.54 ± 0.019 | -0.0836 ± 0.048 | 1.73 ± 0.14
25 | GUGAAG | -0.453 ± 0.027 | 1.5 ± 0.067 | -0.278 ± 0.08 | 1.66 ± 0.064
26 | GUGAAU | -0.688 ± 0.083 | 1.57 ± 0.07 | -0.318 ± 0.04 | 1.75 ± 0.12
27 | GUGAAA | -0.574 ± 0.012 | 1.41 ± 0.17 | -0.227 ± 0.085 | 1.62 ± 0.059
28 | UUGGAA | -0.145 ± 0.025 | 1.61 ± 0.12 | 0.122 ± 0.11 | 1.78 ± 0.081
29 | GUUCGU | -0.35 ± 0.027 | 1.66 ± 0.01 | 0.0521 ± 0.011 | 1.8 ± 0.074
30 | GUUCGA | -0.345 ± 0.023 | 1.6 ± 0.018 | 0.045 ± 0.055 | 1.75 ± 0.12
31 | GUUGAG | -0.16 ± 0.072 | 1.55 ± 0.081 | 0.0985 ± 0.045 | 1.72 ± 0.11
32 | GUUGAC | -0.0708 ± 0.036 | 1.658 ± 0.008 | 0.228 ± 0.1 | 1.79 ± 0.099
33 | UUGAAG | -0.189 ± 0.02 | 1.639 ± 0.0094 | 0.0171 ± 0.037 | 1.81 ± 0.12
34 | UUGAAA | -0.168 ± 0.075 | 1.607 ± 0.0064 | -0.0658 ± 0.065 | 1.76 ± 0.14
35 | CUGUCA | -0.00992 ± 0.023 | 1.52 ± 0.13 | 0.247 ± 0.011 | 1.68 ± 0.13
36 | UUUUCG | -0.162 ± 0.14 | 1.78 ± 0.035 | 0.00347 ± 0.15 | 1.9 ± 0.12
37 | AUUCAG | -0.308 ± 0.062 | 1.59 ± 0.026 | -0.0248 ± 0.0054 | 1.74 ± 0.1
